Reference: the supplement of paper PMC9112550, “Optimization of the antimicrobial peptide Bac7 by deep mutational scanning” (BMC Biology, 2022)

Test system: Escherichia coli TOP10
Assay: shrunken log2 fold change of peptide-encoding DNA abundance (4.5 h post-induction vs induction); higher = less antimicrobial activity (less host growth inhibition)
Settings: time post-induction: 4.5 h; library: site-saturation at positions 5, 18, 19, 20
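Note: peptides expressed intracellularly from a pBAD plasmid library in pooled LB shake-flask culture, induced with 0.3% L-arabinose, DNA abundance read by NGS, three biological replicates, DESeq2 with apeglm shrinkage.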

Row | Sequence | shrunken log2 fold change
1 | RRIRHRPPRLPRPRPRPDWVPRP | -0.0196
2 | RRIRTRPPRLPRPRPRPPSLPRP | -0.11
3 | RRIRNRPPRLPRPRPRPTAFPRP | 0.00576
4 | RRIRERPPRLPRPRPRPKCAPRP | 0.0581
5 | RRIRFRPPRLPRPRPRPLHSPRP | 0.12
6 | RRIRERPPRLPRPRPRPPIIPRP | -0.562
7 | RRIRFRPPRLPRPRPRPVACPRP | -0.347
8 | RRIRMRPPRLPRPRPRPGFDPRP | 0.908
9 | RRIRRRPPRLPRPRPRPYQQPRP | -0.000903
10 | RRIRIRPPRLPRPRPRPPHKPRP | -0.0846
11 | RRIRRRPPRLPRPRPRPPPFPRP | 0.938
12 | RRIRMRPPRLPRPRPRPHPMPRP | 2.74
13 | RRIRVRPPRLPRPRPRPYNQPRP | -0.844
14 | RRIRERPPRLPRPRPRPLVPPRP | -0.182
15 | RRIRCRPPRLPRPRPRPHRDPRP | -0.3
16 | RRIRWRPPRLPRPRPRPLRDPRP | 0.655
17 | RRIRARPPRLPRPRPRPFEWPRP | -0.0571
18 | RRIRYRPPRLPRPRPRPEDGPRP | -0.141
19 | RRIRVRPPRLPRPRPRPAWHPRP | 0.657
20 | RRIRSRPPRLPRPRPRPIWKPRP | 0.346
21 | RRIRHRPPRLPRPRPRPHWFPRP | -0.198
22 | RRIRHRPPRLPRPRPRPGPVPRP | 0.26
23 | RRIRYRPPRLPRPRPRPWNTPRP | -0.384
24 | RRIRQRPPRLPRPRPRPRSIPRP | -0.0928
25 | RRIRRRPPRLPRPRPRPHGFPRP | 0.114

Row | Sequence | shrunken log2 fold change
26 | RRIRNRPPRLPRPRPRPMNVPRP | -0.00101
27 | RRIRERPPRLPRPRPRPFCYPRP | -0.927
28 | RRIRCRPPRLPRPRPRPLIGPRP | -0.0236
29 | RRIRIRPPRLPRPRPRPQINPRP | -0.776
30 | RRIRARPPRLPRPRPRPWNEPRP | -0.19
31 | RRIRQRPPRLPRPRPRPVHEPRP | 0.536
32 | RRIRKRPPRLPRPRPRPWDWPRP | 0.504
33 | RRIRQRPPRLPRPRPRPLMFPRP | -0.137
34 | RRIRMRPPRLPRPRPRPFLGPRP | 0.254
35 | RRIRTRPPRLPRPRPRPTFQPRP | 0.0412
36 | RRIRTRPPRLPRPRPRPTIHPRP | -0.712
37 | RRIRCRPPRLPRPRPRPESYPRP | -0.336
38 | RRIRFRPPRLPRPRPRPGAGPRP | 0.289
39 | RRIRKRPPRLPRPRPRPTSCPRP | 0.174
40 | RRIRTRPPRLPRPRPRPTVPPRP | 0.0189
41 | RRIRYRPPRLPRPRPRPHIDPRP | -1.95
42 | RRIRWRPPRLPRPRPRPWSDPRP | -0.289
43 | RRIRARPPRLPRPRPRPMHFPRP | 0.122
44 | RRIRSRPPRLPRPRPRPFHRPRP | -0.154
45 | RRIRFRPPRLPRPRPRPCHYPRP | -0.211
46 | RRIRGRPPRLPRPRPRPNPYPRP | -0.0945
47 | RRIRERPPRLPRPRPRPTPGPRP | 0.337
48 | RRIRTRPPRLPRPRPRPLWCPRP | -0.0967
49 | RRIRFRPPRLPRPRPRPTKQPRP | 0.0621
50 | RRIRDRPPRLPRPRPRPHMLPRP | -0.144

Row | Sequence | shrunken log2 fold change
51 | RRIRNRPPRLPRPRPRPNTFPRP | -0.332
52 | RRIRDRPPRLPRPRPRPDHVPRP | -0.012
53 | RRIRLRPPRLPRPRPRPKLHPRP | 0.108
54 | RRIRGRPPRLPRPRPRPNGMPRP | 0.106
55 | RRIRERPPRLPRPRPRPDKCPRP | -0.121
56 | RRIRCRPPRLPRPRPRPNQMPRP | -0.447
57 | RRIRVRPPRLPRPRPRPNSCPRP | -0.394
58 | RRIRCRPPRLPRPRPRPNVWPRP | 0.0481
59 | RRIRMRPPRLPRPRPRPVNAPRP | 0.297
60 | RRIRKRPPRLPRPRPRPAMNPRP | -0.0724
61 | RRIRCRPPRLPRPRPRPSTFPRP | -0.714
62 | RRIRKRPPRLPRPRPRPYLWPRP | 0.125
63 | RRIRGRPPRLPRPRPRPCAIPRP | 2.08
64 | RRIRHRPPRLPRPRPRPLLAPRP | 0.299
65 | RRIRPRPPRLPRPRPRPNWNPRP | -0.184
66 | RRIRARPPRLPRPRPRPHWHPRP | -0.0354
67 | RRIRRRPPRLPRPRPRPAYYPRP | 0.0681
68 | RRIRVRPPRLPRPRPRPAWMPRP | 0.0871
69 | RRIRWRPPRLPRPRPRPWNNPRP | -0.77
70 | RRIRCRPPRLPRPRPRPNWKPRP | 0.0151
71 | RRIRARPPRLPRPRPRPNRMPRP | 0.0574
72 | RRIRVRPPRLPRPRPRPRYWPRP | 0.338
73 | RRIRQRPPRLPRPRPRPYQPPRP | -0.0272
74 | RRIRQRPPRLPRPRPRPDKHPRP | -0.205
75 | RRIRMRPPRLPRPRPRPMIDPRP | -0.0842

Row | Sequence | shrunken log2 fold change
76 | RRIRIRPPRLPRPRPRPRAMPRP | -0.0601
77 | RRIRYRPPRLPRPRPRPNKTPRP | -0.258
78 | RRIRSRPPRLPRPRPRPSSLPRP | -0.255
79 | RRIRSRPPRLPRPRPRPTNKPRP | -0.328
80 | RRIRCRPPRLPRPRPRPKSPPRP | -0.1
81 | RRIRMRPPRLPRPRPRPLMVPRP | 0.396
82 | RRIRIRPPRLPRPRPRPMKDPRP | -0.135
83 | RRIRMRPPRLPRPRPRPTFAPRP | 0.573
84 | RRIRGRPPRLPRPRPRPRLFPRP | 1.11
85 | RRIRKRPPRLPRPRPRPDLYPRP | -0.00937
86 | RRIRRRPPRLPRPRPRPRTCPRP | 0.477
87 | RRIRFRPPRLPRPRPRPVWSPRP | 0.175
88 | RRIRLRPPRLPRPRPRPNVCPRP | -0.0138
89 | RRIRARPPRLPRPRPRPNGEPRP | 0.189
90 | RRIRKRPPRLPRPRPRPHFRPRP | -0.138
91 | RRIRERPPRLPRPRPRPTKQPRP | -0.275
92 | RRIRQRPPRLPRPRPRPRIAPRP | 0.111
93 | RRIRTRPPRLPRPRPRPQYQPRP | -0.502
94 | RRIRRRPPRLPRPRPRPNDTPRP | -0.115
95 | RRIRVRPPRLPRPRPRPCTPPRP | -0.13
96 | RRIRVRPPRLPRPRPRPCAFPRP | -0.264
97 | RRIRTRPPRLPRPRPRPVMPPRP | 0.372
98 | RRIRMRPPRLPRPRPRPLYQPRP | -0.38
99 | RRIRFRPPRLPRPRPRPWCFPRP | -0.282
100 | RRIRNRPPRLPRPRPRPWQEPRP | -0.0629

Row | Sequence | shrunken log2 fold change
101 | RRIRVRPPRLPRPRPRPACMPRP | -0.0781
102 | RRIRVRPPRLPRPRPRPRRQPRP | 0.0745
103 | RRIRIRPPRLPRPRPRPLNCPRP | -0.0654
104 | RRIRWRPPRLPRPRPRPTKKPRP | 0.0726
105 | RRIRNRPPRLPRPRPRPDMSPRP | 0.000831
106 | RRIRIRPPRLPRPRPRPLHDPRP | 0.181
107 | RRIRWRPPRLPRPRPRPQFFPRP | -0.134
108 | RRIRGRPPRLPRPRPRPEIAPRP | 1.86
109 | RRIRARPPRLPRPRPRPQIWPRP | 0.166
110 | RRIRTRPPRLPRPRPRPEKGPRP | -0.0355
111 | RRIRWRPPRLPRPRPRPDCKPRP | -0.0137
112 | RRIRLRPPRLPRPRPRPMQSPRP | 0.0626
113 | RRIRSRPPRLPRPRPRPMNLPRP | 0.048
114 | RRIRIRPPRLPRPRPRPIDRPRP | 0.203
115 | RRIRGRPPRLPRPRPRPGWYPRP | -0.0318
116 | RRIRSRPPRLPRPRPRPENVPRP | 0.0202
117 | RRIRWRPPRLPRPRPRPWFLPRP | -0.617
118 | RRIRNRPPRLPRPRPRPHNTPRP | -0.643
119 | RRIRRRPPRLPRPRPRPALLPRP | -0.0136
120 | RRIRARPPRLPRPRPRPVSHPRP | 0.101
121 | RRIRPRPPRLPRPRPRPLNCPRP | -0.227
122 | RRIRYRPPRLPRPRPRPTQFPRP | -0.558
123 | RRIRPRPPRLPRPRPRPDMVPRP | -0.177
124 | RRIRMRPPRLPRPRPRPHKHPRP | -0.287
125 | RRIRLRPPRLPRPRPRPETYPRP | -0.215
